Source: patent US20190211098A1 (Genentech, published 2019)

What was measured:
[1] = biological target: T1, NPDC1-His (human, UniProt Q9NQX5 35-181, limits assumed); test: SPR, NPDC1-His binding to PILRA variant
T1 construct: not shown: His tag
T1 sequence: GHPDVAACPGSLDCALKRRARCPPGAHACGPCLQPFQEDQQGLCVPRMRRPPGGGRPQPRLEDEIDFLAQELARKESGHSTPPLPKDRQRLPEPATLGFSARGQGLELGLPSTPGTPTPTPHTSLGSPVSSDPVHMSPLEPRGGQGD

[2] = biological target: T2, Full length myc-DDK tagged PIANP, expressed on transfected 293T cells (human, UniProt Q8IYJ0 32-282); test: flow cytometry, soluble PILRA-mFc 50 ug/ml on ligand-transfected 293T cells
T2 construct: Bought construct (Origene Cat. No. RC207868); also called myc-PIANP; C12orf53 (human); not shown: myc-DDK tag of the Origene construct RC207868
T2 sequence: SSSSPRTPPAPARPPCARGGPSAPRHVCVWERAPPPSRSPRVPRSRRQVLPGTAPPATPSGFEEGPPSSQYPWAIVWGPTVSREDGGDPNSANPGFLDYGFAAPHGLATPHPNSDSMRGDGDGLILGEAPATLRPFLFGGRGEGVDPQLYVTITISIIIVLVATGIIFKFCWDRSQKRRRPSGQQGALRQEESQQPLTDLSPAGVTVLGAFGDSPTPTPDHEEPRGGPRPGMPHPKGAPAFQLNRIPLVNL

[3] = biological target: T3, HSV-1 glycoprotein B, full length, expressed on transfected 293T cells (human herpes simplex virus type-1, UniProt P06437 31-904); test: as above
T3 construct: Construct cloned from EF157316 (strain KOSc); also called HSV-1 gB; human herpesvirus 1 strain KOSc glycoprotein B (EF157316)

B1: PILRA G78 variant extracellular domain fused to murine IgG2a Fc (Fc fusion)
chain: QPSGSTGSGPSYLYGVTQPKHLSASMGGSVEIPFSFYYPWELATAPDVRISWRRGHFHGQSFYSTRPPSIHKDYVNRLFLNWTEGQKSGFLRISNLQKQDQSVYFCRVELDTRSSGRQQWQSIEGTKLSITQAVTTTTQRPSSMTTTWRLSSTTTTTGLRVTQGKRRSDSWHISLET
notes: Made in CHO cells, protein A/G purified; also called PILRA-mFc G78; PILRA-Fc G78; not shown: Fc region of murine IgG2a, C-terminal tag
In the case of B1, the Kd [1] is reported as 16.8 nM, the kon [1] is reported as 22000 M⁻¹ s⁻¹ and the binding result [2] is reported as “binds”. B1: binds [3].
